{"source": "the nanobody polyreactivity screen of Harvey et al. (2022)", "data": [{"assay": "yeast display, Sf9 membrane polyspecificity reagent, FACS + sequencing; frameworks hold sequencing errors", "how_it_was_run": "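Polyreactivity labels are assigned by the sorting gate from which each nanobody was recovered. The gates were low and high (top ~1%), set on anti-HA fluorescence for expression and streptavidin fluorescence for reagent binding. Before sorting, galactose-induced (36–48 hours) yeast display cells were stained for 1 hour at 4 °C with 10% biotinylated, detergent-solubilized Sf9 membrane reagent.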", "values": [{"sequence": "QVQLVESGGGLVQAGGSLRLSCAASGLILKYYAMGWYRQAPGKEREFVAAITRRGGITYYADSVKGRFTISRDNAKNTVYLQMNSLKPEDTAVYSCAADPILGSLAYWRYSYPLYDYWGQGTQVTVSS", "polyreactivity (PSR sort gate)": "low polyreactivity"}, {"sequence": "QVQLVESGGGLVQAGGSLRLSCAASGLILNYYTMGWYRQAPGKERELVATISSSTGSTYYADSVKGRFTISRDNAKNTVYLQMNSLKPEDTAVYYCAADHWSYWQIYDYWGQGTQVTVSS", "polyreactivity (PSR sort gate)": "low polyreactivity"}, {"sequence": "QVQLVESGGGLVQAGGSLRLSCAASGLILRKYAMGWYRQAPGKEREFVAAITQTGSRTYYADSVKGRFTISRDNAKNPVYLQMNSLKPEDTAVYYCAADLPRWGSYGYGKMDHWGQGTQVTVSS", "polyreactivity (PSR sort gate)": "high polyreactivity"}, {"sequence": "QVQLVESGGGLVQAGGSLRLSCAASGLILSSNAMGWYRKAPGQERELVAAITWDGDRTYADSVKGRFTISRDNAKNTVYLQMNSLKPEDTAVYYCAARIGTGVLTGRGANSHMDYWGQGTQVTVSS", "polyreactivity (PSR sort gate)": "low polyreactivity"}, {"sequence": "QVQLVESGGGLVQAGGSLRLSCAASGLILYTYAMGWSRQAPGQVRELVAAINSGGRTYYADAVKGRFTISRDNAKNTVYLQMNSLKPEDTAVYYCAADYGSRVRGFNYWGQGTQVTVSS", "polyreactivity (PSR sort gate)": "low polyreactivity"}, {"sequence": "QVQLVESGGGLVQAGGSLRLSCAASGLILYWYAMGWYRQAPGKERELVAAISISGGSTYYADSVKGRFTISRDNAKNTVYLQMNSLKPDDTAVYYSAAVYFYSWEGDGDYWGLGTQVTVSS", "polyreactivity (PSR sort gate)": "low polyreactivity"}, {"sequence": "QVQLVESGGGLVQAGGSLRLSCAASGLISESYAMGWYRQAPGKERELVAAISSGGSTYYADSVKGRFTISRDNAKNTVYLQMNSLKPEDTAVYYCNATGYKYNYGHAYYYAVDYWGQGTQVTVSS", "polyreactivity (PSR sort gate)": "low polyreactivity"}, {"sequence": "QVQLVESGGGLVQAGGSLRLSCAASGLIVPWYDMGWYRQAPGKERELVAAINWRGGSTYYADSVKGRFTISRDNAKNTVYLQMKSLKPEDTAVYYCAACYLHRDSYIYDYWGQGTQVTVSS", "polyreactivity (PSR sort gate)": "low polyreactivity"}, {"sequence": "QVQLVESGGGLVQAGGSLRLSCAASGLIYFYAMGWYRQAPGKERELVAAISSTGGRTYYADSVKGRFTIARDNAKNTVYLQMNSVKPEDTAVYYCNVLVYNVYTRGYYSYKYYFWGQGTQVTVSS", "polyreactivity (PSR sort gate)": "high polyreactivity"}, {"sequence": "QVQLVESGGGLVQAGGSLRLSCAASGLIYPVYAMGWYRQAPGKEREFVAAITYDGGNTYYADSVKGRFTISRDNAKNTVYLQMNSLKPEDTAVYYCAAEGVELISTRDPHDDYWGQGTQVTVSS", "polyreactivity (PSR sort gate)": "low polyreactivity"}, {"sequence": "QVQLVESGGGLVQAGGSLRLSCAASGLIYSYNAMGWTRQAPGKERELVAAISRSGGTPYYADSVKGRFTISRDNANNTVYLQMNSLKPEDTEVYYCAAEIRFLSWEYDYWGQGTQVSVSS", "polyreactivity (PSR sort gate)": "high polyreactivity"}, {"sequence": "QVQLVESGGGLVQAGGSLRLSCAASGLIYSYYVMGWNRQAPGKERELVPAINESGGRTYYADSVKGRFTISRDNAKNTVYLEMNSLKPEDTAVYYCAASVLNKIQGYRDYYCGQGTQVTVSS", "polyreactivity (PSR sort gate)": "low polyreactivity"}, {"sequence": "QVQLVESGGGLVQAGGSLRLSCAASGLKFGVNPMGWYRPAPGKERELVAAISRDSDTNYADSVKGRFTISRDNAKNTVYLQMISLKPEDTAVYYFNAYSEWPVPSPPRSQSLDYWGQGTQVTVSS", "polyreactivity (PSR sort gate)": "low polyreactivity"}, {"sequence": "QVQLVESGGGLVQAGGSLRLSCAASGLMVTYYAMCGYRPAPGKARELVAAINYSGGSTYDADSVKGRFTISRDNAKTTVYLLMNSLKPEDTAVYYCAARRFTQTEGPMGYWGQGTQVTFSS", "polyreactivity (PSR sort gate)": "low polyreactivity"}, {"sequence": "QVQLVESGGGLVQAGGSLRLSCAASGLNFGVNAMGLYRQAPGKERELVAAISRSGGSTYYADSVKGRFTISRDNAKNSVYLQMNSLKPEDTAVYYCAAAAWDPKGSRYDYWGHGTQVTVSS", "polyreactivity (PSR sort gate)": "low polyreactivity"}, {"sequence": "QVQLVESGGGLVQAGGSLRLSCAASGLNFSYYAMGWYRQAPGKERELVAAINSGGSTYYADSVKGRFTISRDNAKNTVYLQMNRLKQEDTAVYYCAAHLWYHGHLFDYWGQGTQVTVSS", "polyreactivity (PSR sort gate)": "high polyreactivity"}, {"sequence": "QVQLVESGGGLVQAGGSLRLSCAASGLNFYDNVMGWSRPAPGKEREFVAAITSIGGSTYYADSVKGRFTISRDNAMNTVYLQMISLKPEDTAVYYCIGKSKYYSPNYDYWGQGTQVTVSS", "polyreactivity (PSR sort gate)": "low polyreactivity"}, {"sequence": "QVQLVESGGGLVQAGGSLRLSCAASGLNFYGYFMGWYRQAPGKERELVAAISATGGSTYYADSVKGRFTISRDTAKNTVYLQMNSLKPEETAVYYCAATYYSYTWFSQYYYWGQGTQVTVSS", "polyreactivity (PSR sort gate)": "high polyreactivity"}, {"sequence": "QVQLVESGGGLVQAGGSLRLSCAASGLNFYRNAMGWSRQAPGKERELVAAISASGGRTYYADSVKGRFTISRDNAKNTVYLPMNSLKPEDTAVYYCAAKSLWLSMDYWGQGTQVTVSS", "polyreactivity (PSR sort gate)": "high polyreactivity"}, {"sequence": "QVQLVESGGGLVQAGGSLRLSCAASGLNQANYAMVWYRQAPGQEREMVAAISSSGGSTYYADSVKGRFTISRDNAKNTVYLQMNSLKPEDTAVYYCAAYPLYRRSWTGDYWGQGTQVTVSS", "polyreactivity (PSR sort gate)": "high polyreactivity"}, {"sequence": "QVQLVESGGGLVQAGGSLRLSCAASGLPFRYNVMGWYRQAPGKETALGATISTSAGDTYYADSVKGRFTISRDNAKNTVYLQMNSLKPEDTAVYYCNAEAWYSVEYDDWGQGTQVTVSS", "polyreactivity (PSR sort gate)": "low polyreactivity"}, {"sequence": "QVQLVESGGGLVQAGGSLRLSCAASGLSFSYYAMVWYRQAPGKERELVAAITSSGGNTYYADSVKGRFTISRDNANNTVYLQMNSLKPEDTAVYYCNDRRYLRGYGYGYWGQGTQVTVSS", "polyreactivity (PSR sort gate)": "high polyreactivity"}, {"sequence": "QVQLVESGGGLVQAGGSLRLSCAASGLSLDVNVMGWYRPAPGKERELVAGIRSDSRTNYADSVKGRFTISRDNAKNTVYLQMNRLKPEDTAVYYCATRDKYISYYTYPYYSWGQGTQVTVSS", "polyreactivity (PSR sort gate)": "low polyreactivity"}, {"sequence": "QVQLVESGGGLVQAGGSLRLSCAASGLSSLRMLWDGRDRRLGKKGSWLPLITSGGDSTNYADSVKGRFTISRDNAKNTVYFQMNSLKPEDTAVYYCAADLDYPYGYLGQGTQVTVSS", "polyreactivity (PSR sort gate)": "low polyreactivity"}, {"sequence": "QVQLVESGGGLVQAGGSLRLSCAASGLTFADNTMGWYRQAPGKERELVAAIDWSGGGTDYADSVKGRFTISRDNAKNTDYLQMNSLKPEDTAVYYCNAERTSWEDDYWGQGTQVTVSS", "polyreactivity (PSR sort gate)": "low polyreactivity"}, {"sequence": "QVQLVESGGGLVQAGGSLRLSCAASGLTFAFNAMGWYRPAPGKERELVAAISKSGGSTYYADSVKGRFTISRDNAKNTVYLQMNSLKPEDTAVYYCAAGFWYYSYPTLYEYGYWGQGTQVTVSS", "polyreactivity (PSR sort gate)": "low polyreactivity"}, {"sequence": "QVQLVESGGGLVQAGGSLRLSCAASGLTFAKYAMGWYRQAPGKERELVAAIRSGDDTTYADSVKGRFTISRDNAMNTVYLQMISLKPEDTAVYYCAARPIHYPPYYYWGQGTQVTVSS", "polyreactivity (PSR sort gate)": "high polyreactivity"}, {"sequence": "QVQLVESGGGLVQAGGSLRLSCAASGLTFALYAMGWYRQAPGKERELVAAITGSGGSTYYADSVKGRFTISRDTAKNSVYLQMNSLKPEDTAVYYCNKLFYRWRIVDKYYYCGQGTQVTVSS", "polyreactivity (PSR sort gate)": "high polyreactivity"}, {"sequence": "QVQLVESGGGLVQAGGSLRLSCAASGLTFASNAMGWYRQAPGKERELVAAISWSDGSTYYADSVKGRFTISRDNAKNTVYLQMNSLKPEDTAVYYCAAESYFFSPRTREKFDYWGQGTQVTVSS", "polyreactivity (PSR sort gate)": "low polyreactivity"}, {"sequence": "QVQLVESGGGLVQAGGSLRLSCAASGLTFASYAMGWYRPAPGKERELVARISRSGGSTYYADSVKGRFTISRDNAKNTVYLQMNSLKPEDTAVYYCAADYIFRRYPVGGIYDYDYWGQGTQVTVSS", "polyreactivity (PSR sort gate)": "high polyreactivity"}, {"sequence": "QVQLVESGGGLVQAGGSLRLSCAASGLTFAYNTMGWYRQAPGKEREFVASISSSGGNTYYADSVKGRFTISRDNAKNTVYLQMNSLKPEDTAVYYCAAKKKYHYVASYKRFEYWGQVTQVTVSS", "polyreactivity (PSR sort gate)": "low polyreactivity"}]}]}
